B1: 3-CN,4-F-Benzoyl-Arg-Ava-Gln-Trp-Ala-Val-Gly-His(3Me)-Sta-Leu-NH2 (peptide)
peptide: RXQWAVGHXL
modifications: not fully specified; N-terminal 3-cyano-4-fluoro-benzoyl group (F is 18F or 19F); Ava (5-aminovaleric acid) spacer; His(3Me) (3-methylhistidine); Sta (statine); C-terminal amide
notes: Synthetic bombesin analog
B2: 3-CN,4-F-Benzoyl-Arg-Ava-Gln-Trp-Ala-Val-NMeGly-His-Sta-Leu-NH2 (peptide)
peptide: RXQWAVGHXL
modifications: not fully specified; N-terminal 3-cyano-4-fluoro-benzoyl group (F is 18F or 19F); Ava (5-aminovaleric acid) spacer; NMeGly (N-methylglycine); Sta (statine); C-terminal amide
notes: Synthetic bombesin analog
B3: 3-CF3,4-F-Benzoyl-Arg-Ava-Gln-Trp-Ala-Val-NMeGly-His-Sta-Leu-NH2 (peptide)
peptide: RXQWAVGHXL
modifications: not fully specified; N-terminal 3-trifluoromethyl-4-fluoro-benzoyl group (F is 18F or 19F); Ava (5-aminovaleric acid) spacer; NMeGly (N-methylglycine); Sta (statine); C-terminal amide
notes: Synthetic bombesin analog
B4: 4F,3CN-Bnz-Arg-Ava-Gln-Trp-Ala-Val-NMeGly-His(3Me)-Sta-Leu-NH2 (peptide)
peptide: RXQWAVGHXL
modifications: not fully specified; N-terminal 3-cyano-4-fluoro-benzoyl group (F is 18F or 19F); Ava (5-aminovaleric acid) spacer; NMeGly (N-methylglycine); His(3Me) (3-methylhistidine); Sta (statine); C-terminal amide
notes: Synthetic bombesin analog

Data on 4 molecules can be found in patent US20090317326A1 (published 2009).

What is called IC50 is the concentration needed to halve the response being measured. Read a low IC50 as greater potency.

T1 sequence (P30550 whole entry): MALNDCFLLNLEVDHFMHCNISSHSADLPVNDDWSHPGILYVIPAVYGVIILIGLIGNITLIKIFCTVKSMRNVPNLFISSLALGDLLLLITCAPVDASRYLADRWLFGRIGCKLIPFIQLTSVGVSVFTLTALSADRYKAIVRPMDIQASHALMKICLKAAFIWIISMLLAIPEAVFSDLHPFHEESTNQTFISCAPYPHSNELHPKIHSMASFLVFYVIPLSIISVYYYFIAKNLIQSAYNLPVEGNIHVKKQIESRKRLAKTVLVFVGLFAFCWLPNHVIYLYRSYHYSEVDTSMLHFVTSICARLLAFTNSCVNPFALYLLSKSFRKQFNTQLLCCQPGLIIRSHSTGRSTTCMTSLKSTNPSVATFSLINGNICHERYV

This test concerns the target T1, human GRP receptor (human, UniProt P30550 1-384).
T1 construct: also called Gastrin-releasing peptide (GRP) receptor; GRP receptors
The test can be described thus: binding affinity (IC50); assay format, labelled ligand and receptor source not described.
Take B1: the IC50 is 1 nM.
For B2, the half-maximal inhibitory concentration (IC50) was 1.9 to 2.7 nM.
Consider B3, for which the IC50 lay in the range of 0.3 to 1.8 nM.
To B4 belongs 2.3 nM.
